Source: IntAct's records for PubMed 18191225

B1: Caveolin-3 (Mus musculus), P51637 (parent)
chain: MMTEEHTDLEARIIKDIHCKEIDLVNRDPKNINEDIVKVDFEDVIAEPEGTYSFDGVWKVSFTTFTVSKYWCYRLLSTLLGVPLALLWGFLFACISFCHIWAVVPCIKSYLIEIQCISHIYSLCIRTFCNPLFAALGQVCSNIKVVLRREG
partner: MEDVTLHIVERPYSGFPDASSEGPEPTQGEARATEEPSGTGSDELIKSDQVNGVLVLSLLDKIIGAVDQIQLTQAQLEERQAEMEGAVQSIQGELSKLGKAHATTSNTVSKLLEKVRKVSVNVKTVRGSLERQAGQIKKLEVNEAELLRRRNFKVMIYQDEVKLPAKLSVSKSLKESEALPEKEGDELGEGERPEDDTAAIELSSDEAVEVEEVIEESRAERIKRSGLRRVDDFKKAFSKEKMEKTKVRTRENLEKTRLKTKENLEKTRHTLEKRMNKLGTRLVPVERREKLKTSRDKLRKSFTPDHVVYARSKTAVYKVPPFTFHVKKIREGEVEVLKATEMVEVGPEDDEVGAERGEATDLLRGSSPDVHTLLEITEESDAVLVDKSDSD

Variants of: B1
Conditions: with cavn1_mouse Cavin1, O54724

Question: MMTEEHTDLEARIIKDIHCKEIDLVNRDPKNINEDIVKVDFEDVIAEPEGTYSFDGVWKVSFTTFTVSKYWCYRLLSTLLGVPLALLWGFLFACISFCHIWAVVLCIKSYLIEIQCISHIYSLCIRTFCNPLFAALGQVCSNIKVVLRREG [P105L] was tested. Which “effect of a mutation on the interaction” value did it give?
Answer: Its value is “decreasing interaction”.
